From article PMC11104707

B1: N-terminal half of ubiquitin-fused talin head domain (N-Ub-THD), wild type [not stated] / integrin β3 transmembrane domain-tail fused to the C-terminal half of ubiquitin (C-Ub) [not stated] (parent)
chain 1: MVALSLKISIGNVVKTMQFEPSTMVYDACRMIRERIPEALAGPPNDFGLFLSDDDPKKGIWLEAGKALDYYMLRNGDTMEYRKKQRPLKIRMLDGTVKTIMVDDSKTVTDMLMTICARIGITNHDEYSLVRELMEEKKDEGTGTLRKDKTLLRDEKKMEKLKQKLHTDDELNWLDHGRTLREQGVEEHETLLLRRKFFYSDQNVDSRDPVQLNLLYVQARDDILNGSHPVSFDKACEFAGFQCQIQFGPHNEQKHKAGFLDLKDFLPKEYVKQKGERKIFQAHKNCGQMSEIEAKVRYVKLARSLKTYGVSFFLVKEKMKGKNKLVPRLLGITKECVMRVDEKTKEVIQEWSLTNIKRWAASPKSFTLDFGDYQDGYYSVQTTEGEQIAQLIAGYIDIILKKKKSKDHFGLEGDEESTMLEDSVSPKKSTVLQ
chain 2: ILVVLLSVMGAILLIGLAALLIWKLLITIHDRKEFAKFEEERARAKWDTANNPLYKEATSTFTNITYRGT

Variants of: B1
Assay: mammalian two-hybrid (split-ubiquitin) assay, GFP expression read by flow cytometry
Settings: with integrin β3 transmembrane domain-tail fused to the C-terminal half of ubiquitin (C-Ub); CHO cells stably incorporated with 5xGAL4-UAS and the integrin β3 TMD-tail construct; Empty control 0.23 %, N-Ub-THD(ΔF3) 1.96 %; parent: 7.9

Row | response (% GFP-expressing cells) | Variant
1 | 2.28 | chain 1 MVALSLKISIGNVVKTMQFEPSTMVYDACRMIRERIPEALAGPPNDFGLFLSDDDPKKGIWLEAGKALDYYMLRNGDTMEYRKKQRPLKIRMLDGTVKTIMVDDSKTVTDMLMTICARIGITNHDEYSLVRELMEEKKDEGTGTLRKDKTLLRDEKKMEKLKQKLHTDDELNWLDHGRTLREQGVEEHETLLLRRKFFYSDQNVDSRDPVQLNLLYVQARDDILNGSHPVSFDKACEFAGFQCQIQFGPHNEQKHKAGFLDLKDFLPKEYVKQKGERKIFQAHKNCGQMSEIEAKVRYVKLARSLKTYGVSFFLVKEKMKGDNKLVPRLLGITKECVMRVDEKTKEVIQEWSLTNIKRWAASPKSFTLDFGDYQDGYYSVQTTEGEQIAQLIAGYIDIILKKKKSKDHFGLEGDEESTMLEDSVSPKKSTVLQ [chain 1 K322D]
